Source: patent publication US20230038638A1, “COMPLEMENT FACTOR I-RELATED COMPOSITIONS AND METHODS” (published 2023)
Substitutions are numbered along the chain they refer to.

Assays:
human C4b (human) [1] = molecular target: T1, human C4b (human) (UniProt P0C0L5)
T1 sequence: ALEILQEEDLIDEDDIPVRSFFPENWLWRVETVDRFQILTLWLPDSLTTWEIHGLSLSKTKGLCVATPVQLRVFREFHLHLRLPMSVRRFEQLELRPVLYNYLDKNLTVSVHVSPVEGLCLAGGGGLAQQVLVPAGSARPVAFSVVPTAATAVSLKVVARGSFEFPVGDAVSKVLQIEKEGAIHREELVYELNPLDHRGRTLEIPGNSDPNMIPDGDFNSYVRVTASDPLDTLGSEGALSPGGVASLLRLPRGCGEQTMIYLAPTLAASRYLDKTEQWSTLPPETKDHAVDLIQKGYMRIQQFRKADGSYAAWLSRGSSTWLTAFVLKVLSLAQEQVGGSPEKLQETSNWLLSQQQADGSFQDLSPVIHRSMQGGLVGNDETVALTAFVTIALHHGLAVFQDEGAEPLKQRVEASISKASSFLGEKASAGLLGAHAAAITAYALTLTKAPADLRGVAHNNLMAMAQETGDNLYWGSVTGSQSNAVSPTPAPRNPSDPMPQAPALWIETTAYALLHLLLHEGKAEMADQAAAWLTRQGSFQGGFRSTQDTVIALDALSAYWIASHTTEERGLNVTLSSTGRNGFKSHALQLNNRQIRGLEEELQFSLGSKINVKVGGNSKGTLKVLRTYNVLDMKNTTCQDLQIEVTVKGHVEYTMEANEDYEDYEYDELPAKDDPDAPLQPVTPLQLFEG

[2] = molecular target: soluble human C3b (human) (UniProt P01024)
human C4b (human) [3] = molecular target: T2, human C4b (human) (UniProt P0C0L4)
T2 sequence: T1 sequence with T151A, G317D, L364P, S365C, I368L, H369D, S420N, A451V, R454L, A530S

[4] = molecular target: soluble human C3b (human) (UniProt P01024); remark: listed apart in the source

| Substance | C4b Screen Ref Fold (fold vs CFI-HSA wild type) (human C4b (human) [1]) | iC3b Screen Ref Fold (fold vs CFI-HSA wild type) [2] | C4c EC50 (nM) (human C4b (human) [3]) | iC3b EC50 [4] [nM] | C4b Screen Ref Fold (fold of CFI-HSA wild type) (human C4b (human) [1]) | iC3b Screen Ref Fold (fold of CFI-HSA wild type) [2] | C4c EC50 (human C4b (human) [3]) [nM] |
| --- | --- | --- | --- | --- | --- | --- | --- |
| CFI-HSA variant N531G; E457G; E461Q (enzyme) | 6.42 | 0.95 | 29.3 | 5.6 | – | – | – |
| CFI-HSA variant E457G; P535G; D425K (enzyme) | – | – | – | 6 | 4.15 | 1.02 | 90 |
| CFI-HSA variant E457G; N531G; K534Q (enzyme) | – | – | – | 7.1 | 6.34 | 0.96 | 16.9 |
| CFI-HSA variant P558L (enzyme) | 0.89 | 0.99 | 472 | 12.4 | – | – | – |
| CFI-HSA variant Y408L; E457G; P535G (enzyme) | – | – | – | 11.7 | 1.21 | 0.6 | 205 |
| CFI-HSA variant D425R; Y408L; N531G; E457G; E461Q; R462K; F464Y (enzyme) | 4.93 | 1.4 | 26.1 | 4.9 | – | – | – |
| CFI-HSA variant E530D; F537K (enzyme) | 0.92 | 0.98 | 373 | 15.6 | – | – | – |
| CFI-HSA variant D506G (enzyme) | 0.09 | 0 | > 1000 | > 500 | – | – | – |

Now from value to substance:

| C4b Screen Ref Fold (fold vs CFI-HSA wild type) (human C4b (human) [1]) | iC3b Screen Ref Fold (fold vs CFI-HSA wild type) [2] | C4c EC50 (nM) (human C4b (human) [3]) | iC3b EC50 [4] [nM] | C4b Screen Ref Fold (fold of CFI-HSA wild type) (human C4b (human) [1]) | iC3b Screen Ref Fold (fold of CFI-HSA wild type) [2] | C4c EC50 (human C4b (human) [3]) [nM] | Substance |
| --- | --- | --- | --- | --- | --- | --- | --- |
| – | – | – | 8.2 | 5.28 | 2.34 | 48.3 | CFI-HSA variant E457G; N531G; P535G; K534Q (enzyme) |
| – | – | – | 5.2 | 4.7 | 1.19 | 51.9 | CFI-HSA variant N531G; D425K (enzyme) |
| 0.01 | 0.05 | > 1000 | 96.8 | – | – | – | CFI-HSA variant E457F (enzyme) |
| 4.7 | 1.21 | 162 | 12.3 | – | – | – | CFI-HSA variant E457D (enzyme) |
| – | – | 11.9 | 6.9 | 4.82 | 1.11 | – | CFI-HSA variant N531G; E416A (enzyme) |
| – | – | – | 4.7 | 5.1 | 0.58 | 13.5 | CFI-HSA variant Y408L; E457G; N531G; D425K (enzyme) |
| – | – | – | 20.8 | 1.21 | 0.87 | 213 | CFI-HSA variant P558A (enzyme) |
| 1.11 | 1 | 510 | 20.2 | – | – | – | CFI-HSA variant N518Q (enzyme) |
| 5.84 | 1.44 | 53.1 | 5.5 | – | – | – | CFI-HSA variant E457G; E461Q (enzyme) |
| – | – | – | 19.4 | 0.1 | 0.53 | 865 | CFI-HSA variant P535G; D425K (enzyme) |
| 4.31 | 1.28 | 222 | 22.2 | – | – | – | CFI-HSA variant E457G; E461G (enzyme) |
| 0.05 | 0.82 | > 1000 | 43.3 | – | – | – | CFI-HSA variant Y408H (enzyme) |
